The target of assay [1] is T1, BiP3 without signal peptide, His-tagged (Arabidopsis thaliana, UniProt Q8H1B3 36-675).
T1 construct: full-length CDS without the signal peptide; Cloned into pET30a(+) (EcoRI/XhoI); further vector-derived residues between the tag and BiP3 are likely; also called BiP3-His; source: E. coli BL21, purified, dialyzed; not shown: His6, N-terminal, kept
Put plainly: pull-down; 30 μg GST fusion or GST on Glutathione Sepharose 4B beads; 30 μg purified BiP1 or BiP3 with 1 mM ATP in 1 mL binding buffer (20 mM Hepes pH 6.8, 100 mM KCl, 5 mM MgCl2, 0.1% NP-40, 2% glycerol, 1 mM DTT, 1 mM EDTA), 4°C, 2 h; anti-His blot. The conditions noted are these: both partners purified.

The target in assay [2] is T2, BiP1 without signal peptide, His-tagged (Arabidopsis thaliana, UniProt Q9LKR3 28-669).
T2 construct: full-length CDS without the signal peptide; Cloned into pET30a(+) (EcoRI/XhoI); further vector-derived residues between the tag and BiP1 are likely; also called BiP1-His; source: E. coli BL21, purified, dialyzed; not shown: His6, N-terminal, kept
T2 sequence (Q9LKR3 28-669): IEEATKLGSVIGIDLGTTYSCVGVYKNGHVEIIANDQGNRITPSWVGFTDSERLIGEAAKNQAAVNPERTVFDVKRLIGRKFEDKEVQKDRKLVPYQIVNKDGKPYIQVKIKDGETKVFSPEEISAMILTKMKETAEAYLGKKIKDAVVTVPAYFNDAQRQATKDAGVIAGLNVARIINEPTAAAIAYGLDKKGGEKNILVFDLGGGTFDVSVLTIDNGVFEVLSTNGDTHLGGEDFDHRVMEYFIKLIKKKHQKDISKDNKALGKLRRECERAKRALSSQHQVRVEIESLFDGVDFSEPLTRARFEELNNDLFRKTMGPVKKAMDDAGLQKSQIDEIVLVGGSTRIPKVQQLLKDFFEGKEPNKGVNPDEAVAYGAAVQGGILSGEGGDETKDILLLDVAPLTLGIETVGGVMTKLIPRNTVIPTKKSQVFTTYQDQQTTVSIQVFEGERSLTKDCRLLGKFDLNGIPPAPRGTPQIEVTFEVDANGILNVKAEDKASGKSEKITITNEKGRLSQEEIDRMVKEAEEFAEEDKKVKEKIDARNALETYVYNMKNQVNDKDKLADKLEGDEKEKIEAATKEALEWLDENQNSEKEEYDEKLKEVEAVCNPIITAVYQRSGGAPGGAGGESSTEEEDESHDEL
Described as above. The conditions noted are these: both partners purified.

T1 sequence (Q8H1B3 36-675): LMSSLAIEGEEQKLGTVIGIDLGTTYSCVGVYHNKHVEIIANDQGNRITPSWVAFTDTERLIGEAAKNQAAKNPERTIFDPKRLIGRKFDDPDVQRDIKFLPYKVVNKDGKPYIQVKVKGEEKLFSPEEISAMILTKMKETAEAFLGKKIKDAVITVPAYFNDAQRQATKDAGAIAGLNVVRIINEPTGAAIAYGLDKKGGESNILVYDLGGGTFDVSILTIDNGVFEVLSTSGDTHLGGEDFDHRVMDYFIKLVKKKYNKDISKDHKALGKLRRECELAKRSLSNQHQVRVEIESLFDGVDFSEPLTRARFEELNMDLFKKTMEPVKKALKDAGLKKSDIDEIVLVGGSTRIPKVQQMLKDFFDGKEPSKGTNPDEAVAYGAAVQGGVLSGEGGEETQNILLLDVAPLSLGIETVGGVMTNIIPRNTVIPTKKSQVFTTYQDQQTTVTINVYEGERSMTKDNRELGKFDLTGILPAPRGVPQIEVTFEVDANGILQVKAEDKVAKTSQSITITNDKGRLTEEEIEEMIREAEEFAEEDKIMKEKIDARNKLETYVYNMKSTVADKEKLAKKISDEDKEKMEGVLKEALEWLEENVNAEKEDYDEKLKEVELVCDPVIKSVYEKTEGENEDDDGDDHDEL

B1: recombinant TMS1 DnaJ domain with a GST tag (domain or fragment, Arabidopsis thaliana, UniProt Q9SR96 27-80, looked up)
chain: DPYKVLGVSKDAKQREIQKAFHKQSLKYHPDKNKDKGAQEKFAEINNAYEILSD
notes: DnaJ domain of TMS1 (AtERdj3A), Arabidopsis thaliana, 54 amino acid residues, 27-80 aa in TMS1; Cloned into pGEX4T-1 (EcoRI/XhoI); also called GST-DnaJ; source: E. coli BL21, purified, dialyzed
As for B1, the binding result in assay [1] and in assay [2] was “binds” throughout.

The record behind these values is paper PMC4505944, “The THERMOSENSITIVE MALE STERILE 1 Interacts with the BiPs via DnaJ Domain and Stimulates Their ATPase Enzyme Activities in Arabidopsis” (PLoS ONE, 2015).
